In patent US20040049024A1, “Compositions and methods related to the minn1 tumor suppressor gene and protein” (priority 2003, published 2004):
Peptide text beside a SMILES is read from it. * marks the point of attachment. Cbz = O=C(OCc1ccccc1)*; CH2F = FC*

How the values were obtained:
293-T cells = test: Cell death after Minn1 or Fas transfection, with or without caspase inhibitor; assay type: cell-based, human; details: 30 μM, added immediately after transfection; DMSO carrier
Experimental: Fas is a well-characterized inducer of apoptosis (Nagata, Annu. Rev. Genet., 33:29-55 [1999]).
Apoptosis requires the activation of caspase proteases (Stennicke and Salvesen, Biochim. Biophys. Acta 1477:299-306 [2000]). In order to confirm that the cell death observed in the Minn1 and […] transfected cells was apoptotic cell death, the transfection experiments were repeated in the presence of the caspase inhibitor, z-VAD-fink (Calbiochem). The drug was added to the cells to a final concentration of 30 μM immediately after transfection and was maintained during subsequent medium changes. DMSO was used as the drug carrier, and was also included in transfections that contained no drug in order to normalize transfection conditions.

[1] = molecular target: T1, HA-H-Ras(WT) fusion protein (UniProt P01112 1-186); test: co-transfection in 293-T cells, anti-HA immunoprecipitation, anti-FLAG Western blot
T1 construct: Expressed in 293-T cells; precipitated with anti-HA beads; also called wild-type HA-H-Ras
Experimental: (§1) After 48 hours, the cells were lysed, immunoprecipitated using anti-HA antibody-conjugated sepharose beads (BAbCO), washed and analyzed by Western immunoblotting using an anti-FLAG monoclonal antibody (M2 antibody, SIGMA) and an alkaline phosphatase conjugated secondary antibody with an ECL detection kit (Amersham).
(§2) After 48 hours, the cells were lysed in EDTA-free RIPA buffer (described in Clark et al., J. Biol. Chem., 272:20990-20993 [1997]), immunoprecipitated with anti-HA antibody-conjugated sepharose beads (BAbCO), washed and subjected to Western immunoblotting using an anti-FLAG monoclonal primary antibody (M2 antibody, Sigma) and an alkaline phosphatase conjugated secondary antibody with an ECL chemiluminescence kit (Amersham).

[2] = molecular target: T2, HA-H-Ras(G12V) fusion protein (UniProt P01112 1-186); test: as above
T2 construct: Expressed in 293-T cells; precipitated with anti-HA beads; also called pCGNHA-H-Ras(G12V)
Experimental: as §1, §2

H-Ras [3] = test: In vivo Ras/Minn1 binding assay (co-transfection/co-precipitation in 293-T cells); assay type: cell-based, human; details: HA-H-Ras(WT) versus HA-H-Ras(G12V), 48 hours after co-transfection
Excerpt: To confirm and complement the results observed in the in vitro binding assay, an in vivo binding assay was undertaken using recombinant FLAG-tagged Minn1 protein and hemagglutinin (HA)-tagged Ras proteins. These experiments used a standard co-transfection/co-precipitation protocol common in the art, using 293-T cells, a transformed human embryonal kidney cell line.
Expression vectors encoding two different forms of HA-tagged Ras protein were used in this assay, namely, a wild-type HA-H-Ras fusion protein and an HA-H-Ras containing a gain-of-function (G12V) mutation. This mutation is known to be oncogenic, and results in elevated Ras signalling activity (Clark and Der, in GTPases in Biology [eds. Dickey and Birmbauer], Springer-Verlag London Ltd., pp. 259-287 [1993]). […] Thus, this mutant form of Ras is considered to be locked in an active conformation.
as §1, with “The in vivo binding assay was conducted by co-transfecting mammalian expression vectors encoding HA-H-Ras(WT) or HA-H-Ras(G12V) with an expression vector encoding FLAG-Minn1 into 293-T cells. After” for “After”, “(Amersham). […]” for “(Amersham).”

H-Ras [4] = molecular target: T3, H-Ras (Homo sapiens, UniProt P01112); test: In vitro Ras/Minn1 binding and co-precipitation assay
T3 construct: made in house; XL1-Blue Escherichia coli for the MBP fusions
Excerpt: The ability of Ras and Minn1 to interact in vitro was examined. These experiments used in vitro produced and purified maltose binding protein (MBP) fusion proteins containing the Minn1 Ras-Association (RA) domain or the Raf Ras-Binding-Domain (RBD), and purified Ras protein in a standard protein binding and co-precipitation assay.
Ras protein was produced by inducing an H-Ras bacterial expression construct in bacteria followed by differential denaturation and dialysis, as known in the art (See e.g., Campbell-Burk and Carpenter, Methods Enzymol., 255:3-13 [1995]). […] Purity and concentrations of the recombinant proteins were assessed by denaturing polyacrylamide gel electrophoresis (SDS-PAGE) followed by Coomassie Blue staining and comparison to known standards.
After this time, the binding reactions were centrifuged and washed. Following the washing steps, the binding reactions were loaded and resolved using PAGE, blotted to a polyvinylidene difluoride (PVDF) membrane, and analyzed by Western immunoblotting using an anti-H-Ras monoclonal primary antibody (Quality Biotech, #146). Detection was accomplished using an alkaline phosphatase conjugated secondary antibody and ECL chemiluminescence reagent (Amersham). […]
The proteins resolved in the PAGE were analyzed by Western immunoblotting using an anti-H-Ras monoclonal antibody (Viro Med). […]

COC(=O)C[C@H](NC(=O)[C@H](C)NC(=O)[C@@H](NC(=O)OCc1ccccc1)C(C)C)C(=O)CF [z-VAD-fmk] (Cbz-Val-Ala-Asp(OMe)-CH2F)
Effect on Fas-induced cell death (293-T cells): severely reduced | Effect on Minn1-induced cell death (293-T cells): severely reduced

B1: FLAG-tagged Minn1 protein (other, not shown: small tags and cut ends)
chain: MGEAEAPSFEMTWSSTTSSGYCSQEDSDSELEQYFTARTSLARRPRRDQDEPVEWETPDLFQAEIEQKIKEYNAQINSNLFMSLNKDGSYTGFIKVQLKLVRPVSVPSSKKPPSLQDARRGPGRGTSVRRRTSFYLPKDAVKHLHVLSRTRAREVIEALLRKFLVVDDPRKFALFERAERHGQVYLRKLLDDEQPLRLRLLAGPSDKALSFVLKENDSGEVNWDAFSMPELHNFLRILQREEEEHLRQILQKYSYCRQKIQEALHACPLG
notes: also called FLAG-Minn1
binding result [1]: binds | binding result [2]: binds

B2: FLAG-tagged Minn1: Minn1 protein with amino terminal FLAG epitope tag, expressed from pCDNAFLAG-Minn1 in 293-T cells (protein)
chain: MGEAEAPSFEMTWSSTTSSGYCSQEDSDSELEQYFTARTSLARRPRRDQDEPVEWETPDLFQAEIEQKIKEYNAQINSNLFMSLNKDGSYTGFIKVQLKLVRPVSVPSSKKPPSLQDARRGPGRGTSVRRRTSFYLPKDAVKHLHVLSRTRAREVIEALLRKFLVVDDPRKFALFERAERHGQVYLRKLLDDEQPLRLRLLAGPSDKALSFVLKENDSGEVNWDAFSMPELHNFLRILQREEEEHLRQILQKYSYCRQKIQEALHACPLG
modifications: left off: small tags and cut ends
Association with HA-tagged Ras proteins (anti-HA immunoprecipitation, anti-FLAG Western) (H-Ras [3]): preferentially associated with the activated HA-Ras(G12V) protein

B3: MBP-Minn1: maltose binding protein fusion protein containing the Minn1 Ras-Association (RA) domain, amino acid positions 59-270 (protein)
chain: DLFQAEIEQKIKEYNAQINSNLFMSLNKDGSYTGFIKVQLKLVRPVSVPSSKKPPSLQDARRGPGRGTSVRRRTSFYLPKDAVKHLHVLSRTRAREVIEALLRKFLVVDDPRKFALFERAERHGQVYLRKLLDDEQPLRLRLLAGPSDKALSFVLKENDSGEVNWDAFSMPELHNFLRILQREEEEHLRQILQKYSYCRQKIQEALHACPLG
modifications: left off: large carriers
GTP dependence of the interaction with Ras (H-Ras [4]; GTP-loaded versus GDP-loaded H-Ras): GTP-dependent | Co-precipitation of Ras protein (physical interaction with Ras) (H-Ras [4]; purified H-Ras preloaded with GTP or GDP, 4° C. for 2 hours, Western immunoblot with anti-H-Ras antibody): co-precipitated
